Experimental data: PMC11754801, “The molecular basis of Human FN3K mediated phosphorylation of glycated substrates” (Nature Communications, 2025)

Key:
[1] = biological target: Full-length (FL) wild-type human (Hs) FN3K, purified from insect cells (human) (UniProt Q9H479); experiment: SEC; preparative gel filtration during purification from Sf9 cells; HiLoad 16/60 Superdex 75; 10 mM HEPES pH 7.5, 200 mM NaCl, 0.5 mM TCEP; monomeric and dimeric peaks
[2] = biological target: the molecule itself; experiment: crystal structure; HsFN3KΔ crystals, space group P212121, two molecules in the asymmetric unit; apo and soaked with nucleotides and DMF

stoichiometry N [1] | Molecule | binding result [2]
2 | Full-length (FL) wild-type human (Hs) FN3K, purified from insect cells (from UniProt Q9H479 1-309) (enzyme) | 
 | HsFN3KΔ (human FN3K with internal loop truncation: amino acids 117-138 replaced with a GSS linker) (enzyme, intermolecular disulfide between Cys24 of each protomer, human FN3K, Gene ID 64122, residues before the truncated loop (117-138); linker that replaces amino acids 117-138; human FN3K, Gene ID 64122, residues after the truncated loop (117-138); Two molecules in the asymmetric unit, domain-swapped dimer; also called apo-HsFN3K; source: E. coli Rosetta 2 (DE3), purified (Ni-NTA, cation exchange, TEV cleavage, SEC); not shown: His6, N-terminal, cleaved) MEQLLRAELRTATLRAFGGPGAGCISEGRAYDTDAGPVFVKVNRRTQARQMFEGEVASLEALRSTGLVRVPRPMKVIDLPGGGAAFVMEHLKMKSLSSQASKLGEQMADLHLYNQKGSSYVDKFGFHTVTCCGFIPQVNEWQDDWPTFFARHRLQAQLDLIEKDYADREARELWSRLQVKIPDLFCGLEIVPALLHGDLWSGNVAEDDVGPIIYDPASFYGHSEFELAIALMFGGFPRSFFTAYHRKIPKAPGFDQRLLLYQLFNYLNHWNHFGREYRSPSLGTMRRLLK | binds
